{"source": "patent US20130101601A1", "about": "(ANAPTYSBIO, published 2013)", "binders": {"B1": {"name": "APE391 (antibody, V domains shown)", "VH": "QVQLVQSGAEVKKPGSSVKVSCKASGGTFSNYAISWVRQAPGQGLEWMGGIIPIFGTANYAQKFQGRVTITADESTSTAYMELSSLRSEDTAVYYCARGPEYYDYVWGSYRYNYFDYWGQGTLVTV", "VL": "not shown", "notes": "Fully human IgG; also called HC/LC pair from SCC C10A"}, "B2": {"name": "APE583 (antibody, V domains shown)", "VH": "B1 VH with L45F", "VL": "not shown", "notes": "APE391 with the HC mutation L45F"}, "B3": {"name": "APE803 (antibody, V domains shown)", "VH": "QVQLVQSGAEVKKPGSSVKVSCKASGDTFSNYATGDTFSNYAISWVRQAPGQGFEWMGGIIPIFGTANYAQKFQGRVTITADESTSTAYMELSSLRSEDTAVYYCARGPEYYAYVWGSYRYNYFDYWGQGTLVTV", "VL": "not shown", "notes": "HC CDR3 mutation D100A in the context of the APE646 variant"}, "B4": {"name": "APE925 (antibody, V domains shown)", "VH": "B3 VH with S30N, G53R, G65D, S86N, R120S", "VL": "not shown"}}, "key": {"[1]": {"target": "T1, human βNGF (Nerve Growth Factor) (human, UniProt P01138 122-241, limits assumed)", "T1 construct": "In the FACS rounds it was used biotinylated, fluorochrome-labelled or fused to wasabi fluorescent protein; The construct used in the Biacore runs is not described; also called hβNGF", "T1 sequence (P01138 122-241 limits assumed)": "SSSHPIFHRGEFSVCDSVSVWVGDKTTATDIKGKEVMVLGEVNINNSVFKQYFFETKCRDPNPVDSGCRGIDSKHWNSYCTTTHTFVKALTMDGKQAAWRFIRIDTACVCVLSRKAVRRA", "assay": "Biacore and flow cytometry-based antigen-binding assays"}, "[2]": {"target": "T1, human βNGF (Nerve Growth Factor)", "assay": "kinetic characterization (Biacore)"}, "[3]": {"target": "T1, human βNGF (Nerve Growth Factor)", "assay": "Biacore, purified antibody captured at low density (Rmax<30)", "description": "Mutations observed in both strategies not utilized by APE803 were recombined by overlap extension PCR in a combinatorial library, each HC/LC pair was expressed and characterized on Biacore utilizing direct capture of secreted antibodies."}}, "note": "Where a chain is given by its changes, count along the chain named. Names may count otherwise.", "data": [{"binder": "B1", "values": [{"measurement": "binding result", "setting": "[1]", "result": "binds"}]}, {"binder": "B2", "values": [{"measurement": "binding result", "setting": "[2]", "result": "binds"}]}, {"binder": "B3", "values": [{"measurement": "Kd", "setting": "[2]", "result": 0.76, "unit": "nM"}, {"measurement": "fold improvement in kon (against APE646)", "setting": "[2]", "result": 100, "unit": "fold"}]}, {"binder": "B4", "values": [{"measurement": "Kd", "setting": "[3]", "result": 0.025, "unit": "nM"}]}]}
